Reference: US20050037969A1 (ARBOR VITA, published 2005)
Ends that are not written are not given here. * marks the point of attachment. Biotin = O=C1N[C@H]2[C@H](CS[C@H]2CCCCC(=O)*)N1

T1: GST-TAX-IP43 PDZ domain fusion protein (human, UniProt Q13884 109-180)
T1 construct: also called TAX43; not shown: glutathione S-transferase encoded by vector pGEX-3X (Pharmacia)
T1 sequence: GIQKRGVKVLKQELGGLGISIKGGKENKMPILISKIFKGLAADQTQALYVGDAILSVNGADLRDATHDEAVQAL

T2: GEF PDZ-GST fusion protein (Homo sapiens (Human), UniProt Q8TEU7 293-400)
T2 construct: The label GEF is not explained in the excerpts
T2 sequence: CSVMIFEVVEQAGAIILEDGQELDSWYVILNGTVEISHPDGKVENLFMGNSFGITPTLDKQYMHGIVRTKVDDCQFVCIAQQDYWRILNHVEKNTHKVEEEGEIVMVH

T3: GST-PTN-4 PDZ domain fusion protein (Homo sapiens (Human), UniProt P29074 517-605)
T3 construct: also called protein-tyrosine phosphatase meg1; not shown: glutathione S-transferase encoded by vector pGEX-3X (Pharmacia)
T3 sequence: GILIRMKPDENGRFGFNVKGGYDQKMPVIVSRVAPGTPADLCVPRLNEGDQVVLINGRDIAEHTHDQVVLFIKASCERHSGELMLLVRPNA

T4: GST-CASK PDZ domain fusion protein (Homo sapiens, UniProt O14936 486-575)
T4 construct: also called Homo sapiens CASK protein
T4 sequence: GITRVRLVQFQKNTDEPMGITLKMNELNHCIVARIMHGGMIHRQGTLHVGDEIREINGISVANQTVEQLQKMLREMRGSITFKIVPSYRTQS

T5: TAX-IP33 PDZ-GST fusion protein (Homo sapiens (Human), UniProt O14910 103-193)
T5 construct: Order of GST and PDZ part and limits not seen in the excerpts
T5 sequence: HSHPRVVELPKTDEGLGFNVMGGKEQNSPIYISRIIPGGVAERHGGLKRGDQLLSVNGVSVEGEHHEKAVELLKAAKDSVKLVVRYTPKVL

T6: GST-KIAA0303 PDZ domain fusion protein (Homo sapiens (Human), UniProt O15021 1138-1228)
T6 construct: also called K303; not shown: glutathione S-transferase encoded by vector pGEX-3X (Pharmacia)
T6 sequence: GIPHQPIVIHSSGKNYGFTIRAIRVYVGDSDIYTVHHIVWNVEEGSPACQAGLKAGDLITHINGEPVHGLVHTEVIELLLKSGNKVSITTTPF

T7: TAX-IP2L PDZ-GST fusion protein (Homo sapiens (Human), UniProt Q8TF64 107-197)
T7 construct: Order of GST and PDZ part and limits not seen in the excerpts
T7 sequence: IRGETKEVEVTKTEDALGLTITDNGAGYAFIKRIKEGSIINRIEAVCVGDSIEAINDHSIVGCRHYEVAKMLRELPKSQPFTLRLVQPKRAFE

T8: SP short PDZ-GST fusion protein (Homo sapiens (Human), UniProt O43464 350-435)
T8 construct: The label SP short is not explained in the excerpts
T8 sequence: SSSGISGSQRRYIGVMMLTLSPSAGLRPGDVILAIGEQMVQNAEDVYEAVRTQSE

T9: GST-mouse syntenin fusion protein (Mus musculus, UniProt O08992 108-286)
T9 construct: also called Mus musculus Syntenin; not shown: glutathione S-transferase encoded by vector pGEX-3X (Pharmacia)
T9 chain: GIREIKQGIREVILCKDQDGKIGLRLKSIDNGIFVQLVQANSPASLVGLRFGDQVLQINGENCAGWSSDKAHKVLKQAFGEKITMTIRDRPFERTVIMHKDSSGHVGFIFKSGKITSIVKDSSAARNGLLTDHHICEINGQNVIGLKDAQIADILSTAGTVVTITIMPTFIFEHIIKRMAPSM

T10: GST-DVL1 PDZ domain fusion protein (human, UniProt O14640 247-339)
T10 construct: also called human dishevelled segment polarity protein homolog; not shown: glutathione S-transferase encoded by vector pGEX-3X (Pharmacia)
T10 sequence: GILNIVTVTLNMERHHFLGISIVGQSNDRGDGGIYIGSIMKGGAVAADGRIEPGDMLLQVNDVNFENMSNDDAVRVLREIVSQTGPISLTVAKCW

T11: GST-DLG5 (p-dlg) PDZ domain fusion protein (Human, UniProt Q8TDM6 1343-1583)
T11 construct: also called Human discs large protein p-dlg; not shown: glutathione S-transferase encoded by vector pGEX-3X (Pharmacia)
T11 sequence: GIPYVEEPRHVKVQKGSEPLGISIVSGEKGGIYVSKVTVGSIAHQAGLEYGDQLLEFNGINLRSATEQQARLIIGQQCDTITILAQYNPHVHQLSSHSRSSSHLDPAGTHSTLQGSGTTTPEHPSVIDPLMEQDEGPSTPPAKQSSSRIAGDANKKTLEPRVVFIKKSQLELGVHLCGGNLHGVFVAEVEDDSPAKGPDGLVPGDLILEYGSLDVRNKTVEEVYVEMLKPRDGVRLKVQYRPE

T12: K559 PDZ-GST fusion protein (Homo sapiens (Human), UniProt Q9Y6V0 4489-4593)
T12 construct: Order of GST and PDZ part and limits not seen in the excerpts
T12 sequence: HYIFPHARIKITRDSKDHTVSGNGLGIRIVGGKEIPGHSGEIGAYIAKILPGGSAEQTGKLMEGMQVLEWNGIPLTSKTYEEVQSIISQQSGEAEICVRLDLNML

T13: MINT3 PDZ-GST fusion protein
T13 construct: Order of GST and PDZ part and limits not seen in the excerpts
T13 chain: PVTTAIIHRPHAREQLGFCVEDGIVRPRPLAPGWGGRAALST

B1: KV1.3 C-terminal peptide AA33L, biotinylated (peptide)
peptide: Biotin-TTNNNPNSAVNIKKIFTDV
B2: CD3n C-terminal peptide AA4L, biotinylated (peptide)
peptide: Biotin-SVFSIPTLWSPWPPSSSSQL
notes: also called CD3η; CD3-eta
B3: BLR-1 C-terminal peptide AA45L, biotinylated (peptide)
peptide: Biotin-PSWRRSSLSESENATSLTTF
notes: also called CXCR5
B4: CD46 (Form 1) C-terminal peptide AA10L, biotinylated (peptide)
peptide: Biotin-KKGTYLTDETHREVKFTSL
B5: DOCK2 C-terminal peptide AA40L, biotinylated (peptide)
peptide: Biotin-LASKSAEEGKQIPDSLSTDL
B6: VCAM1 C-terminal peptide AA17L, biotinylated (peptide)
peptide: Biotin-ARKANMKGSYSLVEAQKSKV
notes: also called CD106
B7: LPAP C-terminal peptide AA30L, biotinylated (peptide)
peptide: Biotin-AWDDSARAAGGQGLHVTAL
B8: PAG C-terminal peptide AA58L, biotinylated (peptide)
peptide: Biotin-KENDYESISDLQQGRDITRL
notes: also called Phosphoprotein Associated with GEMs
B9: Spectrin (beta) C-terminal peptide AA32L, biotinylated (peptide)
peptide: Biotin-SFPPCGHRENVPGQSLVSFV
notes: Marked (S), sticky; also called Spectrin beta (S); Spectrin β

Each binder was assayed against T1, GST-TAX-IP43 PDZ domain fusion protein (assay: A/G assays).

Binder | binding result
B1 | no binding
B2 | no binding
B3 | no binding
B4 | no binding
B5 | no binding
B6 | no binding
B7 | no binding
B8 | no binding

The binders below were run against T14, NOS1 PDZ-GST fusion protein (Homo sapiens (Human), UniProt P29475 11-100) (assay: A/G assays).
T14 construct: Order of GST and PDZ part and limits not seen in the excerpts
T14 sequence (P29475 11-100 limits assumed): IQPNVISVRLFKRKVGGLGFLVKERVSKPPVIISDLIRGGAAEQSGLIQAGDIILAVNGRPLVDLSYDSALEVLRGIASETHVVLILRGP

Binder | binding result
B1 | no binding
B2 | no binding
B3 | no binding
B4 | no binding
B5 | no binding
B6 | no binding
B8 | no binding

Each binder was assayed against T2, GEF PDZ-GST fusion protein (assay: A/G assays).

Binder | binding result
B1 | no binding
B2 | no binding
B3 | no binding
B4 | no binding
B5 | no binding
B6 | no binding
B7 | no binding
B8 | no binding

These binders were tested against T3, GST-PTN-4 PDZ domain fusion protein (assay: A/G assays).

Binder | binding result
B1 | no binding
B2 | no binding
B3 | no binding
B4 | no binding
B5 | no binding
B6 | no binding
B7 | no binding
B8 | no binding

Each binder was assayed against T4, GST-CASK PDZ domain fusion protein (assay: A/G assays).

Binder | binding result
B1 | no binding
B2 | no binding
B3 | no binding
B4 | no binding
B5 | no binding
B6 | no binding
B9 | no binding
B7 | no binding
B8 | no binding

What follows are binders tested against T5, TAX-IP33 PDZ-GST fusion protein (assay: A/G assays).

Binder | binding result
B1 | no binding
B2 | no binding
B3 | no binding
B4 | no binding
B5 | no binding
B6 | no binding
B7 | no binding
B8 | no binding

What follows are binders tested against T6, GST-KIAA0303 PDZ domain fusion protein (assay: A/G assays).

Binder | binding result
B1 | no binding
B2 | no binding
B3 | no binding
B4 | no binding
B5 | no binding
B7 | no binding
B8 | no binding

The binders below were run against T7, TAX-IP2L PDZ-GST fusion protein (assay: A/G assays).

Binder | binding result
B1 | no binding
B2 | no binding
B3 | no binding
B4 | no binding
B5 | no binding
B6 | no binding
B7 | no binding
B8 | no binding

What follows are binders tested against T15, PICK1 PDZ-GST fusion protein (Bos taurus (Bovine), UniProt Q2T9M1 17-105) (assay: A/G assays).
T15 construct: Order of GST and PDZ part and limits not seen in the excerpts
T15 sequence (Q2T9M1 other isoform, or with tags, fused parts or gaps limits assumed): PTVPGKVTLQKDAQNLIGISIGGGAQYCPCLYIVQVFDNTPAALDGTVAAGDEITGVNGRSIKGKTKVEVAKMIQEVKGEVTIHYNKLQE

Binder | binding result
B1 | no binding
B2 | no binding
B3 | no binding
B4 | no binding
B5 | no binding
B6 | no binding
B9 | no binding
B7 | no binding
B8 | no binding

The binders below were run against T8, SP short PDZ-GST fusion protein (assay: A/G assays).

Binder | binding result
B1 | no binding
B2 | no binding
B3 | no binding
B4 | no binding
B5 | no binding
B6 | no binding
B9 | no binding
B7 | no binding
B8 | no binding

Biological target: T9, GST-mouse syntenin fusion protein
Assay: A/G assays

Binder | binding result
B1 | no binding
B2 | no binding
B3 | no binding
B4 | no binding
B5 | no binding
B6 | no binding
B9 | no binding
B7 | no binding
B8 | no binding

What follows are binders tested against T10, GST-DVL1 PDZ domain fusion protein (assay: A/G assays).

Binder | binding result
B2 | no binding
B3 | no binding
B4 | no binding
B5 | no binding
B6 | no binding
B9 | no binding
B7 | no binding
B8 | no binding

Each binder was assayed against T11, GST-DLG5 (p-dlg) PDZ domain fusion … (assay: A/G assays).

Binder | binding result
B1 | no binding
B2 | no binding
B3 | no binding
B4 | no binding
B5 | no binding
B6 | no binding
B7 | no binding
B8 | no binding

Each binder was assayed against T12, K559 PDZ-GST fusion protein (assay: A/G assays).

Binder | binding result
B1 | no binding
B2 | no binding
B3 | no binding
B4 | no binding
B5 | no binding
B6 | no binding
B9 | no binding
B7 | no binding
B8 | no binding

Each binder was assayed against T16, K316 PDZ-GST fusion protein (Homo sapiens (Human), UniProt Q14CM0 72-159) (assay: A/G assays).
T16 construct: Order of GST and PDZ part and limits not seen in the excerpts
T16 sequence (Q14CM0 72-159 limits assumed): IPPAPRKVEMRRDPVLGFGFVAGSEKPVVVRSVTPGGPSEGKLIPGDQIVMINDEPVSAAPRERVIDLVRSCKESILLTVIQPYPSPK

Binder | binding result
B1 | no binding
B2 | no binding
B3 | no binding
B4 | no binding
B5 | no binding
B6 | no binding

Biological target: T13, MINT3 PDZ-GST fusion protein
Assay: A/G assays

Binder | binding result
B1 | no binding
B2 | no binding
B3 | no binding
B4 | no binding
B5 | no binding
B6 | no binding
B7 | no binding
B8 | no binding
